# The RNAGym collection of RNA variant scans (doi:10.7554/elife.90254)
# B1: LINE1-full (parent)
# chain: UACGUAGGUGGUUUUCCCCUGAUAGUGCUAAGGGGGCCUGGAAGUUUGGACUGGGCAGAGCUCAACACAGCGUGGCAAAGUGGCUGUGGCUAGACUGCCUCUCUGGAUUCCUCGUCACUCAGCAGGGCAUCUCUGAGAGAAAUGCC
# Variants of: B1
# Assay: self-cleavage, relative activity (ratio to wild type); higher = more cleavage; in vitro, sequencing; the parent is a self-cleaving ribozyme
row,Variant,self-cleavage
1,U119A A140G,1.29
2,U119A A140U,1.69
3,C131G A142G,0.36
4,G122C A140C,1.71
5,C120U A129C,0.82
6,A138G C146U,1.32
7,G122C,1.5
8,G122A,1.13
9,G122U,1.3
10,A124C A141G,1.71
11,G127A U132C,0.78
12,C128U A129G,1.65
13,A129G C131U,0.92
14,A121C U143C,1.99
15,A129U U134C,1.22
16,A129U U134G,1.53
17,A129U U134A,1.37
18,C123A A129U,1.31
19,A124G U143A,0.98
20,A124G U143C,0.62
21,A124U A142G,1.51
22,A121G A140C,1.93
23,A121G A140U,1.45
24,A124G G139A,1.84

row,Variant,self-cleavage
1,C120A A140G,1.32
2,A121U U130C,1.7
3,C123U A129G,1.37
4,U130C C133U,1.42
5,U119C A138U,1.67
6,A136G U143C,1.47
7,G125A U130A,1.61
8,G125A U130C,1.69
9,C118U C145U,0.86
10,U130A A142G,1.48
11,A124C A136G,1.15
12,A124G A138U,1.23
13,G127A C128U,1.13
14,A129G C145U,0.99
15,A129G C145G,1.65
16,C133A,1.37
17,C133U,1.16
18,A124C U134C,2.04
19,U119A A129G,1.45
20,A121G U143C,1.69
21,C131U U143G,0.59
22,C128A U130C,1.11
23,A124U U132A,1.56
24,U119C G139U,1.47

row,Variant,self-cleavage
1,A136G A142C,1.08
2,A124C G137U,0.75
3,C120U U130A,1.58
4,U130C A142G,1.37
5,U130C A142U,1.6
6,U130A A141G,1.46
7,U130A A141U,1.13
8,U119G A129G,1.15
9,G127A A138U,1.5
10,A138U U143C,1.23
11,A138U U143G,1.5
12,U132C A136G,1.47
13,U132C A136U,1.46
14,A138U A142C,2.14
15,G127A A140U,1.26
16,U134A C146U,0.6
17,C118U U134A,1.11
18,C128U A136U,1.67
19,A124U A138G,1.79
20,A124U A138U,1.37
21,U119G C146U,1.86
22,U130C C146U,1.52
23,U119C G126U,1.67
24,G135A A138G,1.82

row,Variant,self-cleavage
1,A129G C146U,1.59
2,U132C C133U,1.4
3,U132C C133A,1.14
4,A121U G125U,1.4
5,U119A U143A,1.16
6,A138U A140G,1.2
7,G137U U143C,1.04
8,G127C U132C,1.99
9,U119C C123A,1.36
10,U119C C123U,0.62
11,U119A G122A,1.35
12,G127A U130C,1.31
13,U130C G135U,0.97
14,U132C A142G,1.49
15,U132C G144A,1.86
16,A121G A124U,1.62
17,A121G A124C,0.32
18,A129G A141C,2.06
19,U119C U143A,1.94
20,A121U U132C,1.36
21,C120A G122U,2.31
22,A121U A124U,1.54
23,A121U A124G,1.31
24,G126A U130C,1.41

row,Variant,self-cleavage
1,U130C A141G,1.55
2,A124G G144C,0.68
3,G127A A141G,0.99
4,A121G C123U,1.07
5,U134C A136G,1.75
6,U134C A136U,1.26
7,A121G G125U,1.8
8,C123U U132C,1.53
9,A124G A140U,0.94
10,A124G U130C,1.58
11,A121U G144A,1.86
12,A124U C131A,0.96
13,G127U U143C,1.66
14,U130A U134A,1.33
15,U130A U134C,1.84
16,U134C A142G,1.42
17,A129G,1.52
18,A129C,1.67
19,A129U,1.4
20,U119A G144A,1.68
21,C118U A141U,1.6
22,A124U U134A,1.31
23,A121U A129G,1.77
24,C128U U132C,1.37

row,Variant,self-cleavage
1,A136C U143A,1.51
2,A124C A138G,1.39
3,A124C U132C,1.11
4,U119G A140G,2.22
5,G122A A136G,1.54
6,A124G A142G,0.72
7,G126C A129G,2.02
8,A129C U132C,0.96
9,G122C U143C,1.57
10,G122A A129G,1.19
11,C133A A136U,1.38
12,C123U A141G,1.24
13,C133U A138C,1.74
14,G126U A140G,0.66
15,A124U A140U,1.09
16,C131A G135A,1.55
17,G125U A142G,1.33
18,U130C A140G,1.49
19,U130C A140U,0.32
20,A124U U143A,1.75
21,A124U U143C,1.26
22,G139A A141G,1.58
23,U130A C145U,1.79
24,A124U U130A,1.7

row,Variant,self-cleavage
1,A124U U130C,1.66
2,A121G A141U,1.77
3,C118U U130C,0.97
4,A121U G127A,0.76
5,A121G A136U,1.97
6,U134A G135U,1.21
7,U134C A138U,1.65
8,G139U A140G,1.23
9,G122A G137U,1.23
10,U134A A141U,1.12
11,U132C A141U,0.63
12,U119C U134C,2.11
13,U119C U134G,1.58
14,A124U A141U,1.27
15,G127C,1.45
16,G127U,1.24
17,G127A,1.16
18,U132A G144A,1.82
19,U132A G139A,1.33
20,A121G G135A,2.36
21,A124C U143C,2.43
22,A124C U143A,1.24
23,C120U A136G,1.39
